The text below walks through data of PMC3973126 (Journal of Human Genetics, 2014).

The series deals with the molecule itself. Briefly: atomic force microscopy.

One may read the stoichiometry N as a count of units in the complex or per binding partner.

B1: UGT1A1 (sample observed by atomic force microscopy) (enzyme, human, UniProt P22309 26-533, looked up)
chain: HAGKILLIPVDGSHWLSMLGAIQQLQQRGHEIVVLAPDASLYIRDGAFYTLKTYPVPFQREDVKESFVSLGHNVFENDSFLQRVIKTYKKIKKDSAMLLSGCSHLLHNKELMASLAESSFDVMLTDPFLPCSPIVAQYLSLPTVFFLHALPCSLEFEATQCPNPFSYVPRPLSSHSDHMTFLQRVKNMLIAFSQNFLCDVVYSPYATLASEFLQREVTVQDLLSSASVWLFRSDFVKDYPRPIMPNMVFVGGINCLHQNPLSQEFEAYINASGEHGIVVFSLGSMVSEIPEKKAMAIADALGKIPQTVLWRYTGTRPSNLANNTILVKWLPQNDLLGHPMTRAFITHAGSHGVYESICNGVPMVMMPLFGDQMDNAKRMETKGAGVTLNVLEMTSEDLENALKAVINDKSYKENIMRLSSLHKDRPVEPLDLAVFWVEFVMRHKGAPHLRPAAHDLTWYQYHSLDVIGFLLAVVLTVAFITFKCCAYGYRKCLGKKGRVKKAHKSKTH
As for B1, the “stoichiometry N” value is 2.
